Laboratory results reported in patent US12072338B2, “Pharmaceutical peptides for the treatment of inflammatory diseases” (PROTAGONISTS LTD., priority 2007, dated 2024).

Columns and labels:
GRO-β = molecular target: T1, GRO-β (Homo sapiens, UniProt P19875); assay: Micro-array analysis of chemokine binding peptides: GRO-β
T1 construct: purchased 300-39
T1 sequence (P19875 35-107): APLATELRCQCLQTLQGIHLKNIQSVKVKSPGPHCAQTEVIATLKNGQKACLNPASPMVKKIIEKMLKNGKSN
Description: (§1) (1) Printing: Chemokine (CK) solution (in water) was serially diluted with Print Reagent (GenTel BioSurfaces USA) to final concentrations of 50 μg and 25 μg/ml. BSA/BSA-Biotin control solutions (in water) were diluted with Print Reagent to 100 μg/ml. Amplified stock of M13 phage control (M13KEgIII Cloning Vector, New England Biolabs, Cat.No.E8101S) was stored in Tris Buffered Saline (TBS; pH7.5, 4° C.) and diluted with Print Reagent to the working titre (10^8 pfu/μl). An automated spotting robot (16 pin print tool, 0.4 mm head; BioRobotics, UK) was used to print the CK/BSA control/M13 control, 5 repeats per sample (CK 25 μg/ml and 50 μg/ml; BSA 100 μg/ml; M13 20 μl), on PATH Protein Microarray Slides (GenTel, Prod.No. 2-1005/-1025) at […], and 50-70% relative humidity. Printed micro-array slides were stored at Room Temperature (RT) or 4° C. for at least 24 h before use.
(§2) (2) Blocking: Block Buffer (500 μl/partition; PATHblock, GenTel, Prod.No. 2-1014) was applied to the slide for 1 hour at room temp (RT). After removal of Block Buffer, the slide was air dried for 25 minutes;
(§3) (3) Phage Presented Peptide Binding: Amplified recombinant phage stock was stored in TBS and diluted with Wash Buffer to working titer (10^7 pfu/μl). Recombinant phage suspension (300 μl) was applied per partition and incubated at RT for 1 hour with gentle agitation.
(§4) (4) First Washing: The slides were washed twice with Wash Buffer 300 μl/partition).
(§5) (5) Primary Antibody (Ab) Labeling: The slides were incubated with the Primary Ab (1 mg/ml diluted ×2500 (Wash Reagent), 300 μl; Mouse Anti-M13 monoclonal Ab; Amersham Biosciences, UK; Product Code 27-9420-01) for 45 minutes at RT.
(§6) (6) Second Washing: The slides were washed twice with Wash Buffer (300 μl/partition).
(§7) (7) Secondary Ab Labeling: The slides were incubated with Secondary Ab (1.5 mg/ml diluted ×5000 (Wash Reagent), 300 μl; Cy3-conjugated AffiniPure Goat Anti-Mouse IgG; Jackson ImmunoReserch Labs, USA; Product Code 115-165-062).
(§8) (8) Third Washing: The slides were washed twice with Wash Buffer (300 μl/partition).
(§9) (9) Rinse: the slides were rinsed twice with Rinse Buffer (PATHrinse, GenTel, Prod.No. 2-1018) then dried well.
(§10) (10) Scanning: The peptide-bound, labeled slide was scanned (Laser Intensity 80%, Gain 80%, Resolution 10 μm) with a ScanArray Life Scanner (Packard BioChip Technologies, USA).
(§11) (11) Analysis: Quantitative analysis of micro-array was performed by the SpotReader program of Niles Scientific (USA) and presented as Relative Fluorescence (RF) as a function of CK concentration. Micro-array readout (Cy3 fluorescence) was quantified to determine the relative binding affinities of a CBP for the CKs and by inference, the specificity of the CBP for binding to a CK.

IL-8 = assay: Micro-array analysis of chemokine binding peptides: IL-8
Description: as §1, §2, §3, §4, §5, §6, §7, §8, §9, §10, §11

Mig = molecular target: T2, Mig (Homo sapiens, UniProt Q07325); assay: Micro-array analysis of chemokine binding peptides: Mig; settings: for binding to Mig with relatively high affinity (Relative Fluorescence Units): limit = start of the upper 75% of that peptide's response range
T2 construct: purchased 300-26
T2 sequence (Q07325 23-125): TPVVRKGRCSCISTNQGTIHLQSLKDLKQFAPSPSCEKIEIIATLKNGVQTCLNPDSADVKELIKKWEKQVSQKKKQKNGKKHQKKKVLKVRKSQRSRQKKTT
Description: as §1, §2, §3, §4, §5, §6, §7, §8, §9, §10, §11

I-TAC = molecular target: T3, I-TAC (Homo sapiens, UniProt O14625); assay: Micro-array analysis of chemokine binding peptides: I-TAC; settings: for binding to I-TAC with relatively high affinity (Relative Fluorescence Units): limit = start of the upper 75% of that peptide's response range
T3 construct: purchased 300-46
T3 sequence (O14625 22-94): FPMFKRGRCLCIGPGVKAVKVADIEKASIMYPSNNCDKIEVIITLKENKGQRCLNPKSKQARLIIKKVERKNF
Description: as §1, §2, §3, §4, §5, §6, §7, §8, §9, §10, §11

MCP-1 = molecular target: T4, MCP-1 (Homo sapiens, UniProt P13500); assay: Micro-array analysis of chemokine binding peptides: MCP-1
T4 construct: purchased 300-04
Description: as §1, §2, §3, §4, §5, §6, §7, §8, §9, §10, §11

MCP-2 = molecular target: T5, MCP-2 (Homo sapiens, UniProt P80075); assay: Micro-array analysis of chemokine binding peptides: MCP-2
T5 construct: purchased 300-15
T5 sequence (P80075 24-99): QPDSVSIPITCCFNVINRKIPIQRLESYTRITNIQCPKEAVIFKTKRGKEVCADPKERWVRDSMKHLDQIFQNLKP
Description: as §1, §2, §3, §4, §5, §6, §7, §8, §9, §10, §11

MCP-4 = molecular target: T6, MCP-4 (Homo sapiens, UniProt Q99616); assay: Micro-array analysis of chemokine binding peptides: MCP-4
T6 construct: purchased 300-24
Description: as §1, §2, §3, §4, §5, §6, §7, §8, §9, §10, §11

RANTES = molecular target: T7, RANTES (Homo sapiens, UniProt P13501); assay: Micro-array analysis of chemokine binding peptides: RANTES
T7 construct: purchased 300-06
T7 sequence (P13501 24-91): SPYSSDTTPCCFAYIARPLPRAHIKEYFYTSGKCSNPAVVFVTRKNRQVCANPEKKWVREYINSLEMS
Description: as §1, §2, §3, §4, §5, §6, §7, §8, §9, §10, §11

Eotaxin = molecular target: T8, Eotaxin (Homo sapiens, UniProt P51671); assay: Micro-array analysis of chemokine binding peptides: Eotaxin
T8 construct: purchased 300-21
Description: as §1, §2, §3, §4, §5, §6, §7, §8, §9, §10, §11

Eotaxin 2 = molecular target: T9, Eotaxin 2 (Homo sapiens, UniProt O00175); assay: Micro-array analysis of chemokine binding peptides: Eotaxin 2
T9 construct: purchased 300-33
T9 sequence (O00175 27-119): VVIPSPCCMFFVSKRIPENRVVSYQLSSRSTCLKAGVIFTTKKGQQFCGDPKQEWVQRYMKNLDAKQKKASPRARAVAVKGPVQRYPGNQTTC
Description: as §1, §2, §3, §4, §5, §6, §7, §8, §9, §10, §11

Eotaxin 3 = molecular target: T10, Eotaxin 3 (Homo sapiens, UniProt Q9Y258); assay: Micro-array analysis of chemokine binding peptides: Eotaxin 3
T10 construct: purchased 300-48
T10 sequence (Q9Y258 24-94): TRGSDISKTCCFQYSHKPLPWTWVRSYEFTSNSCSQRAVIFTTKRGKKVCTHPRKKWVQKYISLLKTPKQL
Description: as §1, §2, §3, §4, §5, §6, §7, §8, §9, §10, §11

BCA-1 = molecular target: T11, BCA-1 (Homo sapiens, UniProt O43927); assay: Micro-array analysis of chemokine binding peptides: BCA-1
T11 construct: purchased 300-47
T11 sequence (O43927 23-109): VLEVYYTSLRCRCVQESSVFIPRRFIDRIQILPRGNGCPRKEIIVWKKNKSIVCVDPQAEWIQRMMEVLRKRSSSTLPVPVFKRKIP
Description: as §1, §2, §3, §4, §5, §6, §7, §8, §9, §10, §11

TECK = molecular target: T12, TECK (Homo sapiens, UniProt O15444); assay: Micro-array analysis of chemokine binding peptides: TECK
T12 construct: purchased 300-45
T12 sequence (O15444 24-150): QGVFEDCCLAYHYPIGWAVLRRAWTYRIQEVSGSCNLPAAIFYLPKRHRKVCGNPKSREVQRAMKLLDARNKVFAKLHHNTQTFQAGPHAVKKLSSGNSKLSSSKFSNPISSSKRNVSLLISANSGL
Description: as §1, §2, §3, §4, §5, §6, §7, §8, §9, §10, §11

Lymphotactin = molecular target: T13, Lymphotactin (Homo sapiens, UniProt P47992); assay: Micro-array analysis of chemokine binding peptides: Lymphotactin
T13 construct: purchased 300-20
T13 sequence (P47992 22-114): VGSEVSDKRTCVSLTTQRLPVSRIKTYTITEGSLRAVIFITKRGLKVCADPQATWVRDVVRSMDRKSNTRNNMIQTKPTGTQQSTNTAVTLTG
Description: as §1, §2, §3, §4, §5, §6, §7, §8, §9, §10, §11

I-309 = molecular target: T14, I-309 (Homo sapiens, UniProt P22362); assay: Micro-array analysis of chemokine binding peptides: I-309; settings: limit = start of the upper 75% of that peptide's response range
T14 construct: purchased 300-37
T14 sequence (P22362 24-96): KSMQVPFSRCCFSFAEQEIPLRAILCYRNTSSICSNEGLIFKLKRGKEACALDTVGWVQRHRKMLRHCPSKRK
Description: as §1, §2, §3, §4, §5, §6, §7, §8, §9, §10, §11

SDF1-α = molecular target: T15, SDF1-α (Homo sapiens, UniProt P48061); assay: Micro-array analysis of chemokine binding peptides: SDF1-α
T15 construct: purchased 300-28a
Description: as §1, §2, §3, §4, §5, §6, §7, §8, §9, §10, §11

SDF1-β = molecular target: T16, SDF1-β (Homo sapiens, UniProt P48061); assay: Micro-array analysis of chemokine binding peptides: SDF1-β
T16 construct: purchased 300-28b
Description: as §1, §2, §3, §4, §5, §6, §7, §8, §9, §10, §11

Fractalkine = molecular target: T17, Fractalkine (Homo sapiens, UniProt P78423); assay: Micro-array analysis of chemokine binding peptides: Fractalkine
T17 construct: purchased 300-31
T17 sequence (P78423 25-100 limits assumed): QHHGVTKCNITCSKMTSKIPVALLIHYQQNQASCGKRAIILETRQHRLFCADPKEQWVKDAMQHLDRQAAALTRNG
Description: as §1, §2, §3, §4, §5, §6, §7, §8, §9, §10, §11

Exodus-2 = molecular target: T18, Exodus-2 (Homo sapiens, UniProt O00585); assay: Micro-array analysis of chemokine binding peptides: Exodus-2
T18 construct: purchased 300-35
T18 sequence (O00585 24-134): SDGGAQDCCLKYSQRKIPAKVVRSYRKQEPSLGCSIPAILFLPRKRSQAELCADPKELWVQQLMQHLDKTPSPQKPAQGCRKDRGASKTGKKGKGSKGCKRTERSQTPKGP
Description: as §1, §2, §3, §4, §5, §6, §7, §8, §9, §10, §11

[1] = limit = start of the upper 75% of that peptide's response range

T6 sequence (Q99616 17-98): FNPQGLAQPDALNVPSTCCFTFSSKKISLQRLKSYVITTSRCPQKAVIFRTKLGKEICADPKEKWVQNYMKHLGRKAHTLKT
Chain of IL-8 (P10145 28-99 limits assumed): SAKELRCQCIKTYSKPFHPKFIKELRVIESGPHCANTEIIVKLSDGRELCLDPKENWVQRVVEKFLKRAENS
T4 sequence (P13500 24-99): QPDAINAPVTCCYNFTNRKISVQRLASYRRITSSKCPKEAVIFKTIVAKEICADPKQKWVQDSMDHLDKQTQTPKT
T8 sequence (P51671 24-97): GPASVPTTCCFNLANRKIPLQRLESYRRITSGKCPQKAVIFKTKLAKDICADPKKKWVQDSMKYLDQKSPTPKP
T16 sequence (P48061 22-93): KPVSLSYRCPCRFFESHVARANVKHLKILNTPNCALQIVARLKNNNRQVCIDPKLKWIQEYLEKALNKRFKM
T15 sequence (P48061 22-89 limits assumed): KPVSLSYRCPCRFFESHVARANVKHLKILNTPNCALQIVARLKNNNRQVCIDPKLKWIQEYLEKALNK

| Substance | binding to GRO-β, stated in words (GRO-β) | binding to IL-8, stated in words (IL-8) | binding to Mig with relatively high affinity (Relative Fluorescence Units) (Mig) | binding to I-TAC with relatively high affinity (Relative Fluorescence Units) (I-TAC) | binding to MCP-1, stated in words (MCP-1) | binding to MCP-4, stated in words (MCP-4) | binding to Eotaxin, stated in words (Eotaxin) | binding to Eotaxin 3, stated in words (Eotaxin 3) | binding to BCA-1, stated in words (BCA-1) | binding to TECK, stated in words (TECK) | binding to Lymphotactin, stated in words (Lymphotactin) | also measured |
| --- | --- | --- | --- | --- | --- | --- | --- | --- | --- | --- | --- | --- |
| DRYLNIVHAT [Ph-p18] | bound | bound | > 9,000 RFU | > 9,000 RFU | bound | bound | bound | bound | bound | bound | bound | binding to MCP-2, stated in words (MCP-2): bound; binding to RANTES, stated in words (RANTES): bound; binding to Eotaxin 2, stated in words (Eotaxin 2): bound |
| DYDYG (listed as Homo sapiens) [Ph-p31] |  |  | > 15,000 RFU | > 15,000 RFU |  |  |  |  | bound | bound | bound | binding to IL-8 with relatively high affinity (Relative Fluorescence Units) (IL-8; [1]): > 15,000 RFU; binding to I-309 with relatively high affinity (Relative Fluorescence Units) (I-309): > 15,000 RFU; binding to MCP-1 with relatively high affinity (Relative Fluorescence Units) (MCP-1; [1]): > 15,000 RFU; binding to MCP-2 with relatively high affinity (Relative Fluorescence Units) (MCP-2; [1]): > 15,000 RFU; binding to MCP-4 with relatively high affinity (Relative Fluorescence Units) (MCP-4; [1]): > 15,000 RFU; binding to RANTES with relatively high affinity (Relative Fluorescence Units) (RANTES; [1]): > 15,000 RFU; binding to Eotaxin with relatively high affinity (Relative Fluorescence Units) (Eotaxin; [1]): > 15,000 RFU; binding to Eotaxin 2 with relatively high affinity (Relative Fluorescence Units) (Eotaxin 2; [1]): > 15,000 RFU; binding to Eotaxin 3 with relatively high affinity (Relative Fluorescence Units) (Eotaxin 3; [1]): > 15,000 RFU; binding to SDF1-α, stated in words (SDF1-α): bound; binding to SDF1-β, stated in words (SDF1-β): bound; binding to Fractalkine, stated in words (Fractalkine): bound; binding to Exodus-2, stated in words (Exodus-2): bound |
| HYTCSSHFP [Ph-p17] | bound | bound |  |  | bound | bound | bound | bound |  | bound | bound | binding to Mig, stated in words (Mig): bound; binding to I-TAC, stated in words (I-TAC): bound |
